Measurements reported in publication PMC7064779.

Biological target: LecB-biotin (Pseudomonas aeruginosa lectin LecB, biotinylated) (Pseudomonas aeruginosa) (UniProt Q9HYN5)
Experiment: pull-down; LecB-biotin applied basolaterally to polarized filter-grown MDCK cells; cells lysed; LecB-biotin-receptor complexes precipitated with streptavidin beads; β1-integrin probed by Western blot in precipitate and supernatant

## β1-integrin (glycosylated, endogenous in MDCK cells) (receptor)
  percent of total β1-integrin extracted: 75%
